This assay deals with Methyl binding domain (MBD) of MeCP2, wild-type (UniProt P51608 90-162). Description: ITC. On the technique in general: Isothermal titration calorimetry measures the heat released or taken up as one component is titrated into another.

Where no end group is shown, it is not given here.

Sequence of Methyl binding domain (MBD) of MeCP2, wild-type (P51608 90-162): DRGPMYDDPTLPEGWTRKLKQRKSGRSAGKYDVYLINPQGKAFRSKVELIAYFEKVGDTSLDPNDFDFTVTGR

The term Kd denotes a measure of binding affinity in units of concentration. Lower therefore signals higher affinity. Molecule Ac-TKAARKSAPAT-NH2 [H3-derived peptide of the K27 region, wild-type] showed a Kd of 3.4 µM. The value for TKAARK(Me3)SAPAT [H3-derived peptide of the K27 region, trimethylated at K27] was 12 µM.

(Values after PMC11039998 (Nucleic Acids Research, 2024).)
